# Measured values as given in PMC7303358, “The Lotus japonicus Ubiquitin Ligase SIE3 Interacts With the Transcription Factor SIP1 and Forms a Homodimer” (Frontiers in Plant Science, 2020).
# B1: SIE3::GFP (natural protein, L. japonicus, UniProt K0BV36 1-386, looked up)
# chain: MELSTIKDAFDRVTKKQKSSSSKTQEVIDQIRQEIENVLDTMQSVNNTDHVLDHKTVLNELKASLLQTAPLSQMEGTQKELNVALSKYGKLLEKNFNTDISKAYRNIDIDVHTLNQIIANHFYRQGLFEIGDHFLSVVGEPESAAVMKSPFLEMYQILEAMKNQDLEPALKWATSNSDKLAQSGSDIVLKLHSMQFVKILQNGSRDEALHYARTYLSPFASSHIADIQKLMGSLLWTGKLDSSPYHALLSPSNWDRLAEELKRQFCNLLGQSYNSPLSVTISAGVQALPPLLKFMNVMVGKKQEWQTMNQLPVPVELDSELQFHSIFVCPVSKEQATEDNPPMLMSCGHVLCKQSISKMSKNGSKLFKCPYCPFDVDAALCKQLYF
# notes: SIE3 of Lotus japonicus fused to GFP; the cloning of this construct is not described; Detected with anti-GFP antibody; monomer about 68.5 kDa, upper band about 137 kDa; source: N. benthamiana leaves, total proteins extracted in native buffer
# Molecular target: the molecule itself
# Assay: SDS-PAGE without DTT in the loading buffer and immunoblot (band of dimer size); SIE3::GFP leaf extract in native buffer, incubated with 10 μM ATP at 4°C with 0 or 100 mM DTT; stopped with SDS loading buffer without DTT; anti-GFP blot
protein,measurement,value
B1,stoichiometry N,2
